Measurements reported in patent US20110300138A1 (published 2011).
Read-outs that look alike come from different tables or passages of the source.

Legend:
Test in all cases: cell-based or functional assay
[1] = target: TSHR with His105 mutated to Ala (expressed in CHO cells) (human) (UniProt P16473)
[2] = target: wild type TSHR expressed in CHO cells (human) (UniProt P16473)
[3] = target: TSHR with Gln235 mutated to Ala expressed in CHO cells (human) (UniProt P16473)
[4] = target: TSHR with Lys129 mutated to Ala, expressed in CHO cells (human) (UniProt P16473)
[5] = target: wild type human TSHR (full length) expressed in CHO cells (human) (UniProt P16473)
[6] = target: wild type TSHR expressed in CHO cells (human) (UniProt P16473); remark: listed apart in the source

% inhibition of TSH stimulation; TSH (2), run at the end of assay [1]: 11%
Cyclic AMP produced; TSH 3 ng/mL alone [1]: 65.9 pmol/mL
Cyclic AMP produced; TSH (2) 3 ng/mL, run at the end of assay [1]: 58.5 pmol/mL
Mutated/wild type (%) of cyclic AMP produced; TSH 3 ng/mL alone [1]: 70%
Mutated/wild type (%) of cyclic AMP produced; TSH (2) 3 ng/mL, run at the end of assay [1]: 50%
% inhibition of TSH stimulation; TSH (2), run at the end of assay [2]: 0%
Cyclic AMP produced; TSH 3 ng/mL alone [2]: 93.6 pmol/mL
Cyclic AMP produced; TSH (2) 3 ng/mL, run at the end of assay [2]: 117 pmol/mL
Cyclic AMP produced, TSH 0.01 ng/mL, Experiment 1 [3]: 1.75 pmol/mL
Cyclic AMP produced, TSH 0.01 ng/mL, Experiment 2 [3]: 3.42 pmol/mL
Cyclic AMP produced, TSH 0.03 ng/mL, Experiment 1 [3]: 2.89 pmol/mL
Cyclic AMP produced, TSH 0.03 ng/mL, Experiment 2 [3]: 4.55 pmol/mL
Cyclic AMP produced, TSH 0.1 ng/mL, Experiment 1 [3]: 5.97 pmol/mL
Cyclic AMP produced, TSH 0.1 ng/mL, Experiment 2 [3]: 7.77 pmol/mL
Cyclic AMP produced, TSH 0.3 ng/mL, Experiment 1 [3]: 17.6 pmol/mL
Cyclic AMP produced, TSH 0.3 ng/mL, Experiment 2 [3]: 17.1 pmol/mL
Cyclic AMP produced, TSH 1 ng/mL, Experiment 1 [3]: 44.2 pmol/mL
Cyclic AMP produced, TSH 1 ng/mL, Experiment 2 [3]: 31.7 pmol/mL
Cyclic AMP produced; TSH 3 ng/mL; Experiment 1 [3]: 46.6 pmol/mL
Cyclic AMP produced; TSH 3 ng/mL; Experiment 2 [3]: 37.1 pmol/mL
Experiment 1: % inhibition of TSH stimulation; TSH (2), run at the end of assay [3]: 13%
Experiment 1: Mutated/wild type (%) of cyclic AMP produced; TSH 3 ng/mL [3]: 70%
Experiment 1: Mutated/wild type (%) of cyclic AMP produced; TSH (2) 3 ng/mL, run at the end of assay [3]: 61%
Experiment 2: % inhibition of TSH stimulation; TSH (2), run at the end of assay [3]: 3%
Experiment 2: Mutated/wild type (%) of cyclic AMP produced; TSH 3 ng/mL [3]: 100%
Experiment 2: Mutated/wild type (%) of cyclic AMP produced; TSH (2) 3 ng/mL, run at the end of assay [3]: 71%
Mutated/Wild type (%) of cyclic AMP produced, TSH 0.01 ng/mL, Experiment 1 [3]: 161%
Mutated/Wild type (%) of cyclic AMP produced, TSH 0.01 ng/mL, Experiment 2 [3]: 177%
Mutated/Wild type (%) of cyclic AMP produced, TSH 0.03 ng/mL, Experiment 1 [3]: 125%
Mutated/Wild type (%) of cyclic AMP produced, TSH 0.03 ng/mL, Experiment 2 [3]: 165%
Mutated/Wild type (%) of cyclic AMP produced, TSH 0.1 ng/mL, Experiment 1 [3]: 91%
Mutated/Wild type (%) of cyclic AMP produced, TSH 0.1 ng/mL, Experiment 2 [3]: 107%
Mutated/Wild type (%) of cyclic AMP produced, TSH 0.3 ng/mL, Experiment 1 [3]: 67%
Mutated/Wild type (%) of cyclic AMP produced, TSH 0.3 ng/mL, Experiment 2 [3]: 68%
Mutated/Wild type (%) of cyclic AMP produced, TSH 1 ng/mL, Experiment 1 [3]: 65%
Mutated/Wild type (%) of cyclic AMP produced, TSH 1 ng/mL, Experiment 2 [3]: 62%
Mutated/wild type (%) of cyclic AMP produced; TSH 3 ng/mL; Experiment 1 [3]: 56%
Mutated/wild type (%) of cyclic AMP produced; TSH 3 ng/mL; Experiment 2 [3]: 53%
% inhibition of TSH stimulation; TSH (2) control [4]: 3%
Cyclic AMP produced; TSH 3 ng/mL [4]: 49.2 pmol/mL
Cyclic AMP produced; TSH (2) [4]: 47.9 pmol/mL
Mutated/wild type (%) of cyclic AMP produced; TSH 3 ng/mL [4]: 98%
Mutated/wild type (%) of cyclic AMP produced; TSH (2) [4]: 90%
% inhibition of TSH stimulation, TSH (2) run at the end of assay, wild type TSHR [5]: 2%
Cyclic AMP produced (pmol/mL), TSH 0.01 ng/mL, wild type TSHR [5]: 2.03 pmol/mL
Cyclic AMP produced (pmol/mL), TSH 0.03 ng/mL, wild type TSHR [5]: 3.65 pmol/mL
Cyclic AMP produced (pmol/mL), TSH 0.1 ng/mL, wild type TSHR [5]: 9.65 pmol/mL
Cyclic AMP produced (pmol/mL), TSH 0.3 ng/mL, wild type TSHR [5]: 31.4 pmol/mL
Cyclic AMP produced (pmol/mL), TSH 1 ng/mL, wild type TSHR [5]: 61 pmol/mL
Cyclic AMP produced (pmol/mL), TSH 3 ng/mL alone, wild type TSHR [5]: 93.9 pmol/mL
Cyclic AMP produced (pmol/mL), TSH 3 ng/mL, wild type TSHR [5]: 82.6 pmol/mL
Cyclic AMP produced (pmol/mL), TSH (2) 3 ng/mL run at the end of assay, wild type TSHR [5]: 92.2 pmol/mL
Cyclic AMP produced, TSH 0.01 ng/mL [5]: 4 pmol/mL
Cyclic AMP produced, TSH 0.01 ng/mL, Experiment 1 [5]: 1.09 pmol/mL
Cyclic AMP produced, TSH 0.01 ng/mL, Experiment 2 [5]: 1.93 pmol/mL
Cyclic AMP produced, TSH 0.03 ng/mL [5]: 6.66 pmol/mL
Cyclic AMP produced, TSH 0.03 ng/mL, Experiment 1 [5]: 2.31 pmol/mL
Cyclic AMP produced, TSH 0.03 ng/mL, Experiment 2 [5]: 2.75 pmol/mL
Cyclic AMP produced, TSH 0.1 ng/mL [5]: 19.7 pmol/mL
Cyclic AMP produced, TSH 0.1 ng/mL, Experiment 1 [5]: 6.54 pmol/mL
Cyclic AMP produced, TSH 0.1 ng/mL, Experiment 2 [5]: 7.25 pmol/mL
Cyclic AMP produced, TSH 0.3 ng/mL [5]: 45 pmol/mL
Cyclic AMP produced, TSH 0.3 ng/mL, Experiment 1 [5]: 26.5 pmol/mL
Cyclic AMP produced, TSH 0.3 ng/mL, Experiment 2 [5]: 25.3 pmol/mL
Cyclic AMP produced, TSH 1 ng/mL [5]: 75.7 pmol/mL
Cyclic AMP produced, TSH 1 ng/mL, Experiment 1 [5]: 67.7 pmol/mL
Cyclic AMP produced, TSH 1 ng/mL, Experiment 2 [5]: 51 pmol/mL
Cyclic AMP produced, TSH 3 ng/mL, Experiment 1 (mean of duplicate) [5]: 83.5 pmol/mL
Cyclic AMP produced; TSH 3 ng/mL [5]: 87.2 pmol/mL
Cyclic AMP produced; TSH 3 ng/mL; Experiment 2 [5]: 69.7 pmol/mL
% inhibition of TSH stimulation, wild type TSHR; TSH (2) (run at the end of assay) [6]: 0%
% inhibition of TSH stimulation; TSH (2) [6]: 0%
% inhibition of TSH stimulation; TSH (2) (run at the end of assay, against the first TSH sample); Experiment 1 [6]: 0%
% inhibition of TSH stimulation; TSH (2) (run at the end of assay, against the first TSH sample); Experiment 2 [6]: 0%
% inhibition of TSH stimulation; TSH (2), run at the end of assay [6]: 0.2%
% inhibition of TSH stimulation; TSH (2); Experiment 1 [6]: 0%
% inhibition of TSH stimulation; TSH (2); Experiment 2 [6]: 0%
Cyclic AMP produced (pmol/mL), 0.01 ng/mL TSH [6]: 2.29 pmol/mL
Cyclic AMP produced (pmol/mL), 0.01 ng/mL TSH, Experiment 1 [6]: 1.8 pmol/mL
Cyclic AMP produced (pmol/mL), 0.01 ng/mL TSH, Experiment 2 [6]: 1.3 pmol/mL
Cyclic AMP produced (pmol/mL), 0.03 ng/mL TSH [6]: 3.56 pmol/mL
Cyclic AMP produced (pmol/mL), 0.03 ng/mL TSH, Experiment 1 [6]: 3.91 pmol/mL
Cyclic AMP produced (pmol/mL), 0.03 ng/mL TSH, Experiment 2 [6]: 3 pmol/mL
Cyclic AMP produced (pmol/mL), 0.1 ng/mL TSH [6]: 8.45 pmol/mL
Cyclic AMP produced (pmol/mL), 0.1 ng/mL TSH, Experiment 1 [6]: 8.92 pmol/mL
Cyclic AMP produced (pmol/mL), 0.1 ng/mL TSH, Experiment 2 [6]: 6.69 pmol/mL
Cyclic AMP produced (pmol/mL), 0.3 ng/mL TSH [6]: 26.3 pmol/mL
Cyclic AMP produced (pmol/mL), 0.3 ng/mL TSH, Experiment 1 [6]: 33 pmol/mL
Cyclic AMP produced (pmol/mL), 0.3 ng/mL TSH, Experiment 2 [6]: 26.2 pmol/mL
Cyclic AMP produced (pmol/mL), 1 ng/mL TSH [6]: 65.7 pmol/mL
Cyclic AMP produced (pmol/mL), 1 ng/mL TSH, Experiment 1 [6]: 76.1 pmol/mL
Cyclic AMP produced (pmol/mL), 1 ng/mL TSH, Experiment 2 [6]: 68.1 pmol/mL
Cyclic AMP produced (pmol/mL), 3 ng/mL TSH [6]: 77.1 pmol/mL
Cyclic AMP produced (pmol/mL), 3 ng/mL TSH, Experiment 1 [6]: 86.2 pmol/mL
Cyclic AMP produced (pmol/mL), 3 ng/mL TSH, Experiment 2 [6]: 69.8 pmol/mL
Cyclic AMP produced (pmol/mL), TSH 0.01 ng/mL [6]: 1.56 pmol/mL
Cyclic AMP produced (pmol/mL), TSH 0.01 ng/mL, Experiment 1 [6]: 1.37 pmol/mL
Cyclic AMP produced (pmol/mL), TSH 0.01 ng/mL, Experiment 2 [6]: 2.1 pmol/mL
Cyclic AMP produced (pmol/mL), TSH 0.03 ng/mL [6]: 2.42 pmol/mL
Substance: TSH (ligand)
